The target of this assay is T1, BMPR2 kinase domain (BMPR2^KD, residues 189-529) (human, UniProt Q13873 189-529).
T1 construct: BMPR2, type II BMP receptor, kinase domain, residues 189-529; TEV site between His tag and kinase domain; also called BMP receptor type II; source: BL21 E. coli, purified (Ni-NTA, TEV cleavage, SEC, Mono-Q); not shown: His tag, N-terminal, cleaved
T1 sequence (looked up): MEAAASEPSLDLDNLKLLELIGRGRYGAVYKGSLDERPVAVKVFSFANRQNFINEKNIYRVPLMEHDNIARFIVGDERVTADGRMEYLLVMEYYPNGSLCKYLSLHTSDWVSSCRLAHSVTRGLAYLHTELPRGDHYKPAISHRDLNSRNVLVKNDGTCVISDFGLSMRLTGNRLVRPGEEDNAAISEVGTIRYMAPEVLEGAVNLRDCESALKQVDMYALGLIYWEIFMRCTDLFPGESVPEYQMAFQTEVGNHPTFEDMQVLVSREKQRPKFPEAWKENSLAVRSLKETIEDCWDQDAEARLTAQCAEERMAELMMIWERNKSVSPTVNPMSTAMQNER
Kind of assay: SEC; Superdex 200 Increase 10/300 GL; kinase domains alone or as a stoichiometric mixture; also run in buffers with increasing NaCl. The following applies: both partners purified. On the technique in general: SEC sorts molecules by how far they enter the pores of the column.

Substitutions are numbered along the chain they refer to. Names and notes keep the numbering of the source.

B1: ALK2 kinase domain (ALK2^KD, residues 201-499) (domain or fragment, human, UniProt Q04771 201-499, looked up)
chain: QRTVARQITLLECVGKGRYGEVWRGSWQGENVAVKIFSSRDEKSWFRETELYNTVMLRHENILGFIASDMTSRHSSTQLWLITHYHEMGSLYDYLQLTTLDTVSCLRIVLSIASGLAHLHIEIFGTQGKPAIAHRDLKSKNILVKKNGQCCIADLGLAVMHSQSTNQLDVGNNPRVGTKRYMAPEVLDETIQVDCFDSYKRVDIWAFGLVLWEVARRMVSNGIVEDYKPPFYDVVPNDPSFEDMRKVVCVDQQRPNIPNRWFSDPTLTSLAKLMKECWYQNPSARLTALRIKKTLTKID
notes: ALK2 (ACVR1), type I BMP receptor, kinase domain without the GS domain, residues 201-499; TEV site between His tag and kinase domain; also called ACVR1; ActRIA; source: SF9 insect cells, purified (Ni-NTA, TEV cleavage, SEC); not shown: His tag, N-terminal, cleaved
With B1, the binding result is on record as “binds”.

B2: ALK2^KD-K492A (ALK2 kinase domain K492A) (domain or fragment, human, UniProt Q04771 201-499, looked up)
chain: B1 chain with K292A
notes: ALK2 (ACVR1) kinase domain, residues 201-499, K492A; source: SF9 insect cells, purified (Ni-NTA, TEV cleavage, SEC); not shown: His tag, N-terminal, cleaved
Regarding B2, the binding result is listed as “binds”.

For the origin of these results see paper PMC8368100, “Structural basis for ALK2/BMPR2 receptor complex signaling through kinase domain oligomerization” (Nature Communications, 2021).
